Data: IntAct's records for PubMed 16571665

B1: Protein phosphatase 2C 77 (Arabidopsis thaliana (Mouse-ear cress)), O04719 (parent)
chain: MDEVSPAVAVPFRPFTDPHAGLRGYCNGESRVTLPESSCSGDGAMKDSSFEINTRQDSLTSSSSAMAGVDISAGDEINGSDEFDPRSMNQSEKKVLSRTESRSLFEFKCVPLYGVTSICGRRPEMEDSVSTIPRFLQVSSSSLLDGRVTNGFNPHLSAHFFGVYDGHGGSQVANYCRERMHLALTEEIVKEKPEFCDGDTWQEKWKKALFNSFMRVDSEIETVAHAPETVGSTSVVAVVFPTHIFVANCGDSRAVLCRGKTPLALSVDHKPDRDDEAARIEAAGGKVIRWNGARVFGVLAMSRSIGDRYLKPSVIPDPEVTSVRRVKEDDCLILASDGLWDVMTNEEVCDLARKRILLWHKKNAMAGEALLPAEKRGEGKDPAAMSAAEYLSKMALQKGSKDNISVVVVDLKGIRKFKSKSLN
partner: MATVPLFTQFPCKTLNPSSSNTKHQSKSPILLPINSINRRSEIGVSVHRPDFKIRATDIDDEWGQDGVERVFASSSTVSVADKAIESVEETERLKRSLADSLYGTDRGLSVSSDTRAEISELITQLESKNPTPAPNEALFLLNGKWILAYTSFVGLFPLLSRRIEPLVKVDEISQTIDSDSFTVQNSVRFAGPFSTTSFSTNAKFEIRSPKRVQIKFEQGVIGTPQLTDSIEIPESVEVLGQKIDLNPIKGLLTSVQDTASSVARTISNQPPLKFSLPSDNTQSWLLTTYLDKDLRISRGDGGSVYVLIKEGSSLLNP

Variants of: B1
Details: with pap1_arath PAP1, O81439

| Variant | effect of a mutation on the interaction |
| --- | --- |
| MDEVSPAVAVPFRPFTDPHAGLRGYCNGESRVTLPESSCSGDGAMKDSSFEINTRQDSLTSSSSAMAGVDISAGDEINGSDEFDPRSMNQSEKKVLSRTESRSLFEFKCVPLYGVTSICGRRPEMEDSVSTIPRFLQVSSSSLLDGRVTNGFNPHLSAHFFGVYDGHDGSQVANYCRERMHLALTEEIVKEKPEFCDGDTWQEKWKKALFNSFMRVDSEIETVAHAPETVGSTSVVAVVFPTHIFVANCGDSRAVLCRGKTPLALSVDHKPDRDDEAARIEAAGGKVIRWNGARVFGVLAMSRSIGDRYLKPSVIPDPEVTSVRRVKEDDCLILASDGLWDVMTNEEVCDLARKRILLWHKKNAMAGEALLPAEKRGEGKDPAAMSAAEYLSKMALQKGSKDNISVVVVDLKGIRKFKSKSLN [G168D] | disrupting interaction strength |

Variants of: B1
Details: with pap1_arath PAP1, O81439
Remark: another data set of the same source

| Variant | effect of a mutation on the interaction |
| --- | --- |
| MDEVSPAVAVPFRPFTDPHAGLRGYCNGESRVTLPESSCSGDGAMKDSSFEINTRQDSLTSSSSAMAGVDISAGDEINGSDEFDPRSMNQSEKKVLSRTESRSLFEFKCVPLYGVTSICGRRPEMEDSVSTIPRFLQVSSSSLLDGRVTNGFNPHLSAHFFGVYDGHDGSQVANYCRERMHLALTEEIVKEKPEFCDGDTWQEKWKKALFNSFMRVDSEIETVAHAPETVGSTSVVAVVFPTHIFVANCGDSRAVLCRGKTPLALSVDHKPDRDDEAARIEAAGGKVIRWNGARVFGVLAMSRSIGDRYLKPSVIPDPEVTSVRRVKEDDCLILASDGLWDVMTNEEVCDLARKRILLWHKKNAMAGEALLPAEKRGEGKDPAAMSAAEYLSKMALQKGSKDNISVVVVDLKGIRKFKSKSLN [G168D] | disrupting interaction |
